We go through eight molecules from patent publication US20140170168A1 (published 2014).

For orientation: Kd means the free concentration of one partner at which half of the binding sites on the other are occupied at equilibrium, for simple one-to-one binding. A lower Kd goes with higher affinity.

First the molecules themselves.
T1: RTL342m (two-domain β1α1 HLA-DR2 with mouse MOG-35-55 peptide) (mouse)
T1 construct: Differs from RTL1000 by the Pro to Ser change at position 42 of MOG; also called DR2/mMOG-35-55; β1α1DR2/mMOG-35-55
T1 chain: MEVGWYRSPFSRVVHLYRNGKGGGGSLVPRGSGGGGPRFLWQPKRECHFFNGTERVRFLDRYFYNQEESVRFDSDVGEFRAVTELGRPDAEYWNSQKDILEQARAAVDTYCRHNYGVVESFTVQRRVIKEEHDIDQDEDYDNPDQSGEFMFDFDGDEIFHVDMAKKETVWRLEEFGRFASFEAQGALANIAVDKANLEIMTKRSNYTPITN

T2: RTL340 (two-domain β1α1 HLA-DR2 with covalently linked MBP-85-99 peptide) (human)
T2 construct: also called RTL340-BirA; DR2/MBP-85-99
T2 chain: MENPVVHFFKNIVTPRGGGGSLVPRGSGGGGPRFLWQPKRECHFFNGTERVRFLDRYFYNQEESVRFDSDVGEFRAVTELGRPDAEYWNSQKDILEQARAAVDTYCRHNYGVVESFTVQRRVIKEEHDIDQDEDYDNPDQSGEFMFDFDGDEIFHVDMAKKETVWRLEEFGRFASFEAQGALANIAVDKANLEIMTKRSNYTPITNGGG

T3: RTL302 (empty two-domain HLA-DR2 RTL) (human)
T3 construct: Two-domain MHC class II without antigenic peptide; also called empty DR2; DR2 (empty)
T3 chain: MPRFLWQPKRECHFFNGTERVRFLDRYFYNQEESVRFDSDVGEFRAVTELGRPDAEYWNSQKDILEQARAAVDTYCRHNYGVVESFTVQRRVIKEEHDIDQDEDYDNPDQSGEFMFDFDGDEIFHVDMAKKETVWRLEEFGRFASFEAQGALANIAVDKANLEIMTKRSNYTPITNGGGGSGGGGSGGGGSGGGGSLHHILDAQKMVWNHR

T4: RTL302 (empty DR2 RTL) loaded with free MOG-35-55 peptide (human)
T4 construct: also called empty β1α1DR2-RTL loaded with MOG-35-55 peptide; MOG-35-55 loaded empty RTL302
T4 chain: T3 chain
T4 peptide: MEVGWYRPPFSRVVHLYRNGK

T5: RTL2010 (two-domain β1α1 HLA-DR4 with covalently linked GAD-555-567 peptide) (human)
T5 construct: also called RTL2010-BirA
T5 chain: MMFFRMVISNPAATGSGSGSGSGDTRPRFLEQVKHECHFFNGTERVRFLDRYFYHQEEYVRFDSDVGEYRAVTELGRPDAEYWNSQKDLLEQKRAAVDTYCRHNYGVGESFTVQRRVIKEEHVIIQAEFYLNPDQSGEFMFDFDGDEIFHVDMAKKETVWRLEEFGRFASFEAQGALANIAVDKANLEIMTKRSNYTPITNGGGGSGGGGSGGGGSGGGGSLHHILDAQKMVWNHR

T6: RTL600 (empty two-domain HLA-DP2 RTL) (human)
T6 construct: also called DP2 (empty)
T6 chain: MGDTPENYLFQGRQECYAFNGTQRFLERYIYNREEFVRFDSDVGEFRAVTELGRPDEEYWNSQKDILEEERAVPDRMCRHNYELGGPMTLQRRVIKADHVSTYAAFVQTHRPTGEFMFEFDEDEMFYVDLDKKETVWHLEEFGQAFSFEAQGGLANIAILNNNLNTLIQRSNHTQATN

B1: Fab 2E4 (Fab, V domains shown)
VH: EVQLVESGAEVKKPGASVKVSCKASGYTFTSYYMHWVRQAPGQGLEWMGIINPSGGSTSYAQKFQGRVTMTRDTSTSTVYMELSSLRSEDTAVYYCAREGDNYYGDAFDIWGQGTMVTVSS
VL: EIVLTQSPATLSLSPGERATLSCRASQSVSSYLAWYQQKPGQAPRLLIYDASNRATGIPARFSGSGSGTDFTLTISSLEPEDFAVYYCQQRSNWPPSYTFGQGTKLEIKR
notes: also called 2E4 Fab; anti-RTL1000 TCRL Fab
B2: Fab 1F11 (Fab, V domains shown)
VH: QLQLQESGPGLVKPSETLSLTCTVSGVSISSRSGHWGWVRQPPGKGLEWIGSISYSGSTYYNPSLKSRVTISVDTSKNQLSLKLSSVTAADTAVYYCARESHPAAALVGWGQGTLVTVSS
VL: ETTLTQSPGTLSLSPGERATLSCRASQSIINSHLAWYQQKPGQAPRLLIYGASSRATGIPDRFSGGGSGTDFTLTITRLETEDFALYFCQQYGTSPLTFGGGTRVETKR
notes: also called 1F11 Fab
B3: Fab 1B11 (Fab, V domains shown)
VH: EVQLVQSGAEVKKPGASVRVSCKASGYTFTSYGISWVRQAPGQGLEWMGWISAYNGNTNYAQKLQGRVTMTTDTSTSTAYMELRSLRSDDTAVYYCARDIRAYGSGSYSRYYYYGMDVWGQGTTVTVSS
VL: EIVLTQSPATLSVSPGERATLSCRASQNIGSILAWYQHKPGQAPRLLIYGASTRATGIPARFSGSGSGTEFTLTISSLQSDDFAVYYCQQYLYWPFTFGGGTKVEIKR
notes: also called 1B11 Fab
B4: Fab 3A3 (Fab, V domains shown)
VH: QVQLQESGGGLVKPGGSLRLSCAASGFTFSSYSMNWVRQAPGKGLEWVSSISSSSSYIYYADSVKGRFTISRDNAKNSLYLQMNSLRAEDTAVYYCARVRGHRYYYDSSGYYSSDYYYYYGMDVWGQGTTVTVSS
VL: DIQLTQSPSSVSASVGDRVTITCRASQVISSWLAWYQQKPGKAPKLLISTASSLQSGVPPRFSGSGSGTDFTLTITSLQPEDFATYYCQQANSFPLTFGQGTKVEIKR
notes: also called 3A3 Fab
B5: Fab D2 (Fab, V domains shown)
VH: EVQLVQSGAEVKKPGSSVKVSCKASGGTFSSYAISWVRQAPGQGLEWMGIINPSGGSTSYAQKFQGRVTITADKSTSTAYMELSSLRSEDTAVYYCARGGPTGIFDYWGQGTLVTVSS
VL: EIVLTQSPATLSLSPGERATLSCRASQSVSSYLAWYQQKPGQAPRLLIYDASNRATGIPARFSGSGSGTDFTLTISSLEPEDFAVYYCQQRSNWPLTFGGGTKVEIKR
notes: the heavy chain entry holds VH, CH1, connector, His tag and Myc tag; also called D2 Fab
B6: RTL1000 (two-domain β1α1 HLA-DR2 with covalently linked human MOG-35-55 peptide) (peptide-MHC)
chain: MEVGWYRPPFSRVVHLYRNGKGGGGSLVPRGSGGGGPRFLWQPKRECHFFNGTERVRFLDRYFYNQEESVRFDSDVGEFRAVTELGRPDAEYWNSQKDILEQARAAVDTYCRHNYGVVESFTVQRRVIKEEHDIDQDEDYDNPDQSGEFMFDFDGDEIFHVDMAKKETVWRLEEFGRFASFEAQGALANIAVDKANLEIMTKRSNYTPITNGGGGSGGGGSGGGGSGGGGSLHHILDAQKMVWNHR
notes: also called RTL1000-BirA; DR2/MOG-35-55
B7: Fab 2C3 (Fab, V domains shown)
VH: QVQLVQSGGGVVQPGRSLRLSCAASGFTFSSYAMHWVRQAPGKGLEWVAVISYDGSNKYYADSVKGRFTISRDNSKNTLYLQMNSLRAEDTAVYYCARDRSFWSGYYIINYYYYGMDVWGQGTTVTVSS
VL: DVVMTQSPLSLPVTPGEPASISCRSSQSLLHSDGNNYLDWYLQKPGQSPQLLIYLGSNRASGVPDRFSGSGSGTDFTLKISRVEPEDVGVYYCMQALHIPLTFGQGTRLEIKR
notes: also called 2C3 Fab
B8: Fab 3H5 (Fab, V domains shown)
VH: QVQLQESGPGLVKPSETLSLTCTVSGGSISGYYWSWIRQPPGKGLEWIGYIYYSGSTNYNPSLKSRVSISVDTSKNQFSLRLSSVTAADSAVYFCARDERDAYYYGMDVWGQGTTVTVSS
VL: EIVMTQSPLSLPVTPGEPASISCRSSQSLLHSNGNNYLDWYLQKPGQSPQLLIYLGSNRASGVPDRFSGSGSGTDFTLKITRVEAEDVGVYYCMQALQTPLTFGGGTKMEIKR
notes: also called 3H5 Fab

Assay [1] addresses T1, RTL342m (two-domain β1α1 HLA-DR2 with …). Kind of assay: ELISA, soluble Fab on immobilised RTL (FIG. 3A). Background: In an ELISA, binding on a coated surface is turned into a signal by an enzyme label.
Description: (§1) Binding specificity of individual phage clone supernatants and soluble Fab fragments were determined by ELISA using biotinylated two and four-domain MHC/peptide complexes. ELISA plates (Falcon) were coated overnight with BSA-biotin (1 μg/well). After being washed, the plates were incubated (1 hour at room temperature) with streptavidin (10 μg/ml), washed extensively and further incubated (1 hour at room temperature) with 5 μg/ml of MHC/peptide complexes. The plates were blocked for 30 minutes at room temperature with PBS/2% skim milk and subsequently were incubated for 1 hour at room temperature with phage clone supernatants (induced at OD₆₀₀=0.8-1.0 for overnight expression at 30° C.) or 5 μg/ml soluble purified Fab. After washing, plates were incubated with horseradish peroxidase-conjugated/anti-human-Fab antibody. Detection was performed using TMB reagent (Sigma). For binding of peptide-loaded RTLs, ELISA plates were coated 2 hours at 37° C. with purified Fab, washed extensively and blocked for 30 minutes with PBS/2% skim milk. […] After washing, plates were incubated with horseradish peroxidase-conjugated/anti-mouse-IgG antibody and detection was performed as described above.
In assay [2] the target is T2, RTL340 (two-domain β1α1 HLA-DR2 with …). Put plainly: ELISA, soluble purified Fab on immobilised biotinylated complex or peptide.
Description: as §1
Assay [3] has as its target T3, RTL302 (empty two-domain HLA-DR2 RTL). The description is as above.
Description: as §1
Assay [4] concerns the target B6. Kind of assay: SPR (ProteOn XPR36), Fab captured by immobilised anti-Fab, RTL1000 injected at 62.5-1000 nM.
Description: Six channels were activated with 50 μl of a mixture of 0.04 M N-ethyl-N-(3-dimethylaminopropyl) carbodiimide (EDC) and 0.01 M sulfo-N-hydroxysuccinimide (Sulfo-NHS) at a flow rate of 30 μl/min. The anti-Fab specific Fab was diluted in 10 mM sodium acetate buffer pH 4.5 to a final concentration of 25 μg/ml, and 150 μl were injected followed by an injection of 150 μl of 1 M ethanolamine-HCl pH 8.5. The immobilization levels were about 4,000 RU. Next, 150 μl of five different supernatants were injected in the vertical orientation in five different channels to allow their capture by the immobilized Fab anti Fab. The sixth channel remained empty to serve as a reference. […] Running buffer was injected simultaneously in the sixth channel for double referencing to correct for loss of the captured supernatant from the chip sensor surface during the experiment. All binding sensorgrams were collected, processed and analyzed using the integrated ProteOn XPR36 system Manager (Bio-Rad Laboratories, Hercules, USA) software. Binding curves were fitted using the Langmuir model describing 1:1 binding stoichiometry, or with the Langmuir and mass transfer limitation model. Each individually captured antibody interacting with the five concentrations of antigen was fitted using a global ka, kd and Rmax. Global fitting is used when the same ka, kd and Rmax values describe a specific biological model like five antigen concentrations interacting with a certain antibody.
Assay [5] concerns the target T4, RTL302 (empty DR2 RTL) loaded with free …. Kind of assay: sandwich ELISA: plate coated with purified Fab, loaded or empty RTL302 added, detection with mAb TU39.
Description: as §1
For assay [6], the target named is T5, RTL2010 (two-domain β1α1 HLA-DR4 with …). Put plainly: ELISA, purified Fab 1B11 on immobilised RTLs and four-domain complexes.
Description: as §1
Assay [7] has as its target T6, RTL600 (empty two-domain HLA-DP2 RTL). Described as above.
Description: as §1
Assay [8] concerns the target T5, RTL2010 (two-domain β1α1 HLA-DR4 with …). Kind of assay: ELISA on immobilised RTL and four-domain complex (FIG. 8C).
Description: as §1
Assay [9] has as its target B1. Put plainly: competition ELISA: soluble competitor varied, binding of purified Fab 2E4 to immobilised RTL1000 read.
Assay [10] has as its target B7. Kind of assay: competition ELISA: soluble competitor varied, binding of purified Fab 2C3 to immobilised RTL1000 read.

Take B1: the “fold reduction in binding to RTL342m compared to RTL1000” value (from here on “fold reduction in binding to RTL342m”) in assay [1] worked out at 2 fold. Further, the binding result is recorded as “no binding (tested: 5 µg/ml Fab)” in assay [2], “no binding (tested: 5 µg/ml Fab)” in [3] and “binds” in [5]. This molecule also had a Kd in assay [4] of 33 nM.
As to B2, the “fold reduction in binding to RTL342m” value in [1] was found to be 5 fold. The values for the binding result in assay [2], in assay [3] and in [5] were “no binding (tested: 5 µg/ml Fab)”, “no binding (tested: 5 µg/ml Fab)” and “binds”, respectively. The molecule also had a dissociation constant Kd in assay [4] of 60 nM.
With B3, the binding result in assay [6] is “binds”; in assay [7] it was “no binding (tested: 5 µg/ml Fab)”; in assay [3], “binds”.
In the case of B4, the “fold reduction in binding to RTL342m” value in [1] came out at 5 fold. The values for the binding result in assay [2], in assay [3] and in assay [5] were “no binding (tested: 5 µg/ml Fab)”, “no binding (tested: 5 µg/ml Fab)” and “binds”, respectively. This molecule came in with a dissociation constant Kd in assay [4] of 58 nM.
Take B5: the binding result in [8] was “binds”.
Take B6: the binding result in [9] and in [10] was “binds” throughout.
Take B7: the binding result is given as “no binding (tested: 5 µg/ml Fab)” in assay [2], “no binding (tested: 5 µg/ml Fab)” in assay [3] and “binds” in [5]. Also, the Kd in assay [4] is 153 nM.
B8: the results for the binding result in assay [2], in [3] and in assay [5] were “no binding (tested: 5 µg/ml Fab)”, “no binding (tested: 5 µg/ml Fab)” and “binds”, respectively. Also, the Kd in [4] is 129 nM.
